This data set can be described thus: Stability of purified ArsR protein to freeze thaw. Format: physicochemical. The following applies: post-dialysis, 0.48 mg/ml in 50 mM Hepes pH 8.5, 200 mM NaCl, 15 mM DTT, 5% glycerol. The protocol: Dialysis was performed next. Glycerol was added to bring the pool to a concentration of 5% glycerol by volume. The pool was then diluted to approximately 1 mg/ml with the dialysis buffer listed below. The faction pool was dialyzed in 3500 Molecular Weight Cutoff tubing placed in 1 liter consisting of 50 mM Hepes, pH 8.5, 200 mM NaCl, 1 mM EDTA, 15 mM DTT, and 5% glycerol for five hours. The dialysis tubing was then placed in 4 liters of 50 mM Hepes, pH 8.5, 200 mM NaCl, 15 mM DTT, and 5% glycerol overnight to remove any EDTA. The pool was then clarified by centrifugation, the protein concentration was determined, and a SDS-PAGE was run of the results.
The final product of a pilot production (5 g whole cell pellet from 34 g total) yielded a protein concentration of 480 μg/ml (in a 0.05% polysorbate solution for stabilization of the protein and reduction of non-specific binding to the sensor surface). The total volume for this experiment was 3.6 ml, which yielded a total protein yield of 1.75 mg. This was dissolved in a buffer of 50 mM Hepes, pH 8.5, 200 mM NaCl, 15 mM DTT, and 5% Glycerol. Purity was greater than 95% by SDS PAGE. In this system, induction was tightly regulated and successful, with 30-40% of protein production in soluble fraction. The initial yield from IMAC for dialysis was 5 mg at 1.0 mg/ml., with visible precipitation post dialysis.

B1: ArsR: E. coli arsenic-binding, DNA-binding ars operon repressor protein, SEQ ID NO:2, expressed from codon-optimized synthetic gene (protein)
chain: MLQLTPLQLFKNLSDETRLGIVLLLREMGELCVCDLCMALDQSQPKISRHLAMLRESGILLDRKQGKWVHYRLSPHIPSWAAQIIEQAWLSQQDDVQVIARKLASVNCSGSSKAVCI
In the case of B1, the “stability to freeze thaw cycles” value is “stable to multiple freeze thaw cycles”.

These data come from patent US20040115786A1 (priority 2001, published 2004).
